The source of these data is PMC3513567 (Molecular cell, 2012).

One may read the Kd as the constant that tells how readily two partners part at equilibrium. A low value points to a tighter complex.

Where a chain is given by its changes, count along the chain named.

The target of assay [1] is truncated murine LEP-R construct (D1-D5) lacking the two membrane-proximal FnIII domains (murine). In words: ITC. (In general: In ITC the heat of successive injections is recorded.)
Assay [2] addresses T1, LEP-R[D1-D7] construct bearing the IgD mutation L370A (murine, UniProt P48356 22-839, L370A).
T1 sequence (looked up): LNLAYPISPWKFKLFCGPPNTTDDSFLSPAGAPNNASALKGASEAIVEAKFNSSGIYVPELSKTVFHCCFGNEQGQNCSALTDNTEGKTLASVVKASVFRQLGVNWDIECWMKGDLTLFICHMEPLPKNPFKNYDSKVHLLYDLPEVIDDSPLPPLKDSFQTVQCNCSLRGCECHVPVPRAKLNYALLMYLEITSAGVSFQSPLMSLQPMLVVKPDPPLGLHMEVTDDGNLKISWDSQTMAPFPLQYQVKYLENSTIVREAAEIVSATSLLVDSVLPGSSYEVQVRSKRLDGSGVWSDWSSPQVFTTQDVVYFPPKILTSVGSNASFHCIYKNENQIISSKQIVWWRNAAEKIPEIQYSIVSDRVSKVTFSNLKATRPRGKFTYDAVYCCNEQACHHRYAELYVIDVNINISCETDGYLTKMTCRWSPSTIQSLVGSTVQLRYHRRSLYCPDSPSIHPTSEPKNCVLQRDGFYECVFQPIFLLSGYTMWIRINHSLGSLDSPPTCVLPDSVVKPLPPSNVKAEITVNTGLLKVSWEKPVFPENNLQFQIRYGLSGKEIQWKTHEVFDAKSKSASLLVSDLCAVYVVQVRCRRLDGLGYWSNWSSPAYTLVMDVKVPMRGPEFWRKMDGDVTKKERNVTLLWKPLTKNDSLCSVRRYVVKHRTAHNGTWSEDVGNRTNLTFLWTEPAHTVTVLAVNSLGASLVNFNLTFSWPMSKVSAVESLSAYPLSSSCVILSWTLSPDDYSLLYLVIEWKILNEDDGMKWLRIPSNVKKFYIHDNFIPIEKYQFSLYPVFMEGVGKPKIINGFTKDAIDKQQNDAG
In words: negative-stain single-particle electron microscopy.

For assay [3], the target named is T2, extracellular region (domains D1-D7) of murine LEP-R (murine, UniProt P48356 22-839).
T2 sequence (looked up): T1 sequence (looked up) with A349L
Nature of the assay: ITC.

Sequence of truncated murine LEP-R construct (D1-D5) lacking the two membrane-proximal FnIII domains (murine) (P48356 whole entry, the tested form may be a part): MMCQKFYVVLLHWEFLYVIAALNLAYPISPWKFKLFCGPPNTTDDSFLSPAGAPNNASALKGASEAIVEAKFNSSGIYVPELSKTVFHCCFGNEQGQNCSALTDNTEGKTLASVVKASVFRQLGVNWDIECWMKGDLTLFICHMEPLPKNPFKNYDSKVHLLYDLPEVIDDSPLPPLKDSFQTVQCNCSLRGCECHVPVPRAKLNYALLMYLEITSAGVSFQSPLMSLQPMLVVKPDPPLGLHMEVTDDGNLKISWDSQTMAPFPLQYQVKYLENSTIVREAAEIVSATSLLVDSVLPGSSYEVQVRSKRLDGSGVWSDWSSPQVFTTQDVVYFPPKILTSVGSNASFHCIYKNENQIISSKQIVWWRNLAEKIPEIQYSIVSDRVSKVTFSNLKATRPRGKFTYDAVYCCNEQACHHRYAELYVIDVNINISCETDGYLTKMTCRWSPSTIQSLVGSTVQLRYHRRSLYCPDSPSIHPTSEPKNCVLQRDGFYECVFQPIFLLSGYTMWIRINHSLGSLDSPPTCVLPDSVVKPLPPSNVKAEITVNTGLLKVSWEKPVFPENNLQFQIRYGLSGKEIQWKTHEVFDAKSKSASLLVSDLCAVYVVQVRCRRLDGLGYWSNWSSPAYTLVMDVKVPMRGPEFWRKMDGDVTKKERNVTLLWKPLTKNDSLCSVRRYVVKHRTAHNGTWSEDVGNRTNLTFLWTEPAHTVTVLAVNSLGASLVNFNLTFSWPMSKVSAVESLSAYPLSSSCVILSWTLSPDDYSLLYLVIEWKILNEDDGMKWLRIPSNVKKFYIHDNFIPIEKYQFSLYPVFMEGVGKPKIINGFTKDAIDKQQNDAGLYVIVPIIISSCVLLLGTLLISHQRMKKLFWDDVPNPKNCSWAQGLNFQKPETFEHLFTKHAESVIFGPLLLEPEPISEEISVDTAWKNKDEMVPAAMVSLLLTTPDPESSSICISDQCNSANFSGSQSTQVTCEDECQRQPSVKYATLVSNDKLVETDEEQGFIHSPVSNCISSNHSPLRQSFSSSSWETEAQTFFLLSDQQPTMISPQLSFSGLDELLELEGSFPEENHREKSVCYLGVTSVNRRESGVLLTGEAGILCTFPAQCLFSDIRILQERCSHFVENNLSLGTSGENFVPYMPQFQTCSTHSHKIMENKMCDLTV

In the case of “recombinant murine leptin (from UniProt P41160 22-167) (ligand)”, in assay [1], the Kd came out at 17 nM and the stoichiometry N (receptor:ligand) is 1.

B1: recombinant murine leptin (ligand, UniProt P41160 22-167, looked up)
chain: VPIQKVQDDTKTLIKTIVTRINDISHTQSVSAKQRVTGLDFIPGLHPILSLSKMDQTLAVYQQVLTSLPSQNVLQIANDLENLRDLLHLLAFSKSCSLPQTSGLQKPESLDGVLEASLYSTEVVALSRLQGSLQDILQQLDVSPEC
In the case of B1, in assay [2], the binding result is listed as “binds”. Besides, the “stoichiometry N” value in assay [3] was ~1 receptor:ligand.
